B1: Tyrosine-protein kinase JAK2 (Mus musculus), Q62120 (parent)
chain: MGMACLTMTEMEATSTSPVHQNGDIPGSANSVKQIEPVLQVYLYHSLGQAEGEYLKFPSGEYVAEEICVAASKACGITPVYHNMFALMSETERIWYPPNHVFHIDESTRHDILYRIRFYFPHWYCSGSSRTYRYGVSRGAEAPLLDDFVMSYLFAQWRHDFVHGWIKVPVTHETQEECLGMAVLDMMRIAKEKDQTPLAVYNSVSYKTFLPKCVRAKIQDYHILTRKRIRYRFRRFIQQFSQCKATARNLKLKYLINLETLQSAFYTEQFEVKESARGPSGEEIFATIIITGNGGIQWSRGKHKESETLTEQDVQLYCDFPDIIDVSIKQANQECSNESRIVTVHKQDGKVLEIELSSLKEALSFVSLIDGYYRLTADAHHYLCKEVAPPAVLENIHSNCHGPISMDFAISKLKKAGNQTGLYVLRCSPKDFNKYFLTFAVERENVIEYKHCLITKNENGEYNLSGTKRNFSNLKDLLNCYQMETVRSDSIIFQFTKCCPPKPKDKSNLLVFRTNGISDVQISPTLQRHNNVNQMVFHKIRNEDLIFNESLGQGTFTKIFKGVRREVGDYGQLHKTEVLLKVLDKAHRNYSESFFEAASMMSQLSHKHLVLNYGVCVCGEENILVQEFVKFGSLDTYLKKNKNSINILWKLGVAKQLAWAMHFLEEKSLIHGNVCAKNILLIREEDRRTGNPPFIKLSDPGISITVLPKDILQERIPWVPPECIENPKNLNLATDKWSFGTTLWEICSGGDKPLSALDSQRKLQFYEDKHQLPAPKWTELANLINNCMDYEPDFRPAFRAVIRDLNSLFTPDYELLTENDMLPNMRIGALGFSGAFEDRDPTQFEERHLKFLQQLGKGNFGSVEMCRYDPLQDNTGEVVAVKKLQHSTEEHLRDFEREIEILKSLQHDNIVKYKGVCYSAGRRNLRLIMEYLPYGSLRDYLQKHKERIDHKKLLQYTSQICKGMEYLGTKRYIHRDLATRNILVENENRVKIGDFGLTKVLPQDKEYYKVKEPGESPIFWYAPESLTESKFSVASDVWSFGVVLYELFTYIEKSKSPPVEFMRMIGNDKQGQMIVFHLIELLKSNGRLPRPEGCPDEIYVIMTECWNNNVSQRPSFRDLSLRVDQIRDSIAA
partner: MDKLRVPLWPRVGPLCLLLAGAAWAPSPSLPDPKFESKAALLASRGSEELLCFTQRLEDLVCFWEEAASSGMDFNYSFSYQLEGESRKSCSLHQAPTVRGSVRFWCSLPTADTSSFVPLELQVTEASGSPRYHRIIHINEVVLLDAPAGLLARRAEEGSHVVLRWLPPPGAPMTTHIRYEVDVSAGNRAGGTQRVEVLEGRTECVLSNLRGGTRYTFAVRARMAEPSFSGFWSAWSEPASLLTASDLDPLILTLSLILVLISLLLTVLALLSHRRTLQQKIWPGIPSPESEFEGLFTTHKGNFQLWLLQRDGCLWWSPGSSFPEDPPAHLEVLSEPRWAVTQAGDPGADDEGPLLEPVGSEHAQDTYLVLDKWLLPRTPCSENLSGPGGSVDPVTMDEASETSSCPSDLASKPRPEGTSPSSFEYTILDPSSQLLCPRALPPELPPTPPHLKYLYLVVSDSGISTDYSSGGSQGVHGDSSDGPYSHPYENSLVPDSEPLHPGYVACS

Variants of: B1
Conditions: with epor_mouse Epor

effect of a mutation on the interaction | Variant
increasing interaction | T875N

Variants of: B1
Conditions: with epor_mouse Epor
Remark: another data set of the same source

effect of a mutation on the interaction | Variant
increasing interaction | V617F

Variants of: B1
Conditions: with epor_mouse Epor
Remark: another data set of the same source

effect of a mutation on the interaction | Variant
increasing interaction | K539L
